Experimental data taken from the DeepSol protein solubility set.

Assay: soluble on expression in E. coli; label from the status in PepcDB or PDB records

| Sequence | soluble on expression in E. coli |
| --- | --- |
| MEETVDQAANSRTISLPISRVRLIMKSSPDVSCINQDALFLTTKATELFVQHLALSSYENGPSKDTNTLSYSDLADTVEETETFQFLTDILPKKILARDYLKTLEEMEKEDDNM | not soluble |
| MAAARIPMSDNLPWKTWTPDDLAPPPAEFVPMAESEETIIEEVEPSLEQQLAQLQMQAHEQGYQAGIAEGRQQGHEQGYQEGLAQGLEQGLAEAKAQQAPIHARMQQLVSEFQTTLDALDSVIASRLMQMALEAARQVIGQTPTVDNSALIKQIQQLLQQEPLFSGKPQLRVHPDDLQRVDDMLGATLSLHGWRLRGDPTLHPGGCKVSADEGDLDASVATRWQELCRLAAPGVV | soluble |
| MDVPTAISIERVVKEMKSLEITLHITPTGPSVGFANINGFNFQFIVLPSVLIARADRYLSETKSDPRIYLASNEVNNRTVRGGIFVVDNSAAPIMRAEVDICSAAGLTDSQLHMCLSNSVNDVLDLQHSWAKATAI | not soluble |
| MSLNSEWGKFALWLKHQRISPAELLVPQPQEKLTGWSDPRISQERILGLLARGHSLALAVDKWQRAGLWILTRGDADYPVRLKNRLRTDAPPVLFGCGNKALLQAEGMAIVGSRDAPTDDLRYTQQLAAKLAQQGICVISGGARGIDECAMASALEAGGTAVGVLADSLLKTSTLVKWREGLIAGNLVLISPFYPEVRFTVGNAMARNKYIYCLAESAMVVRAGMTGGTITGAMEALKHQWLPVQVKPNQDMQSANSRLVENGASWSAEQAENVTIRLPDVPGLMYDRAEGHHHHHH | soluble |
| MSLAEQKPGEGQKTAIKIGVMIDLSGPLTTYGNSIKNTLEIAKEDINAYLEEKGLPYTVEFYVEDTKVDPKIALEKIQSLHSKGINLVIGPMGSGEVSNIKGYVQSNKIIIISPSSTLLPSLLGITKPEDKKYIFRFVGTDDLQTDAITAELKDLGIKAVIITYTGNDWGKGLYETIKPKLDAAGIEIVGEPVEYPSPPPADFSPYIATLESKLNDALQKYDASEVAVVAFSYEEAATMLAQTKDDSPLLNVLWLGCDGTALSDKMLEVCDKASKVRMLSTLFESKGEAYEQLAKKYKERGFGDSPYQYALNAYDAAWVLVLSYIEVVKEKGSYDPDAMNAKIPEVTEKYSKGEYGVKPVSGYIKLNEWNDRASGDYAIYEVTQDCKWQTAGIWKFTENKIEWLEGHHHHHH | soluble |
| MGLVDYAGSESESDEEMETQQKNSLAPQNQQLVDDEAFFDNTEKSSSPNMNKEDVLEELVKPKEWEVKLAEKARRKLEKKALKKAQKEERKKEKKLAKKAMKVEKIPKIGGGIQKAKGKVIISAFGALAGITGENSSDDSDNEGAAVATVKPKLGNSFLSNLPAPKGRDNRSDGANVFDKSMVPHSVSKKATPAAAPVFKPAPAPKLPDDSDDDDDGPTDFFGFSSAPTRKESEIPSEIPYMTMNSSMDVVGPSRPDEGMDPRQMYEMPEEEEDVQEGPSASNAWLHRKINDEQAHKLLMRFSHDIGQEERRSINEMANSIVDVNVDDALGPDVKTNIIKNLGHRAFVEATSAPLPQVQTQGQMSRRKHQITYLASLAVSREEQLKDQWADQKQSKRMARQKYGF | not soluble |
| MGSDKIHHHHHHMDTKFSCVGCGGCCTDHHVPLTLLEARQWAADGGNVIVLTEAFLSNGYGVAQNQLTHATRRSTEVNSGSTTAFVAITFAAYNVGRCRNLDEENLCRIYERRPLVCRIYPMEINPHIPLRPETKGCPPESWEQGPDLIVGDTLVDTQLMSLIEQSRQADRDEIAAKQLICQQLGIRTTALKGNGFVAYLPDMNAFAAAIENVANLAGAAPENSDWEFHVAGQHVVDTLQQEGADVTDREPVSYLFIPLQAA | not soluble |
| MAHHHHHHMEEHPKILSIAGSDSCAGAGMQADLKTAMSLGCHCCTILVVLTAQNTKEVKSIIEVDEKFIVEQLDAIFTDITIEVVKLGVLYSKKIISLIHNYITNINKMREKKLLVVFDPVFVSSSGCMLVENLDYVKYALDLICPLSCIITPNFYECKVILEALNFNIDINNMRTSDLCKLVTEKLNINACLFKSCNIDINTEDENKLYAVDHLCIKNDNDYDTKIKQNISYDVYKLKSKRNPQKDIHGTGCTLSTAISCFLSKKYDIIQACIESKKYIYNCINYAYDLGSKSQGLNHLKAAQHLTDFRELQVIKVD | soluble |
| MNSTNSGPPDSGSATGVVPTPDEIASLLQVEHLLDQRWPETRIDPSLTRISALMDLLGSPQRSYPSIHIAGTNGKTSVARMVDALVTALHRRTGRTTSPHLQSPVERISIDGKPISPAQYVATYREIEPLVALIDQQSQASAGKGGPAMSKFEVLTAMAFAAFADAPVDVAVVEVGMGGRWDATNVINAPVAVITPISIDHVDYLGADIAGIAGEKAGIITRAPDGSPDTVAVIGRQVPKVMEVLLAESVRADASVAREDSEFAVLRRQIAVGGQVLQLQGLGGVYSDIYLPLHGEHQAHNAVLALASVEAFFGAGAQRQLDGDAVRAGFAAVTSPGRLERMRSAPTVFIDAAHNPAGASALAQTLAHEFDFRFLVGVLSVLGDKDVDGILAALEPVFDSVVVTHNGSPRALDVEALALAAGERFGPDRVRTAENLRDAIDVATSLVDDAAADPDVAGDAFSRTGIVITGSVVTAGAARTLFGRDPQ | soluble |
| NSYVFDLPHNQHKLTKFAHKGILFNSVHLERDGTLKFPQLKQSKQKPAVSSELKTAIKRIKAGYKKVKPNYKKRQKQQIAELFAKRKQRRSWKNF | not soluble |
| MVHMSWFRRRRKSFFDLLEDIFREFEEEFRELEEEFEKLASRVQSRGEEFGKGPYIYGVRITIGPDGVPKVEEFGNIRMARGRPQIREEMEPLVDVIERDDEVWIVADIPGANKDKIKVRATEDKVVIKAENGKKYYKEVELPAKVDPKSAKASYRNGVLEIKLKKIKPAEEGTEVKVE | soluble |
| MRSTELIVERGPSRNEAHSMVNESPSNQPQEQFSLEPKWKTAAAPSCESSSEEAAYPKGNEEEEHNEARPRALCRLTDVSTDHYAKNPDSEEEDAQDEAEGDGSHVGAIPAEAATTARPHDLHKAKKKRSNHAKETKAAETLEKPAAPRKKKPMYKVNIGNVERHPPVPEGVNTPRSVMLCKECGVNPSELARYDRKHFQGAGVSDEVAELRYQSYEKRRCARMAQLKPAYKESIKYDLEDPVSVPAAKRKAQAAEEAPARPAAAAQAAAPPPKLLDEEAQMQRQFEAQHQRLLEQERRKTVTSGYDSDGRRRSPPRAGHFYGASVRSVGSAKSPGRYSRNTSVGARPTVDQPYSAAKIYSASIVESRPLTQSEVIMIDEINEREAHRIDTQERAFVIQENKQLMHVERELIRERLACVRVQKNAEDREKMQQKMHKRNEARQNVVAKRRKKLEAERQARIQDSVAEKAARCHTTNPYASLMLRQMSGFSTCHTSSSFPSQGADVSASREQSSEAE | soluble |
| MNTHYVGPVLYTPKENVSEKLLKLFDADQPIIFCYTARFYDNVGESGKAIFDNMIKIADKIDASIIISTGNKKDELLALDIASKELKSGKVSIVDYVPLDMAYEKSDLVIHHGGHGSCLAQFYYGVPSVIIPTHTEREYNARMCEKLHVGKMLPRRELNSANLKNCINDVLNDITYKKSVRDWKEKVSGLEHHHHHH | not soluble |
| MPTVSLGRFQKEDGINVPDWIDVVRRPSGGRALLHHREITYCLAVPKKINFGKLSVLEFHRLVHSLIRDALVEAGLHAELSSKRRGNTALCFDAPSRYEIVINGVKVVGSAQFRTAESIVEHGSIVLKQDIDL | soluble |
| MKRVFCPKCDGAITISRETLSQASPNGSLSLLCPHCCHQLRIRLVSKSDNSHNHKTEQEEQELAQELDRSRGYIVVLENIFGYRQEFALREGDNGIGRRNKDSVVDIAVLTGDPSMGRHHCILRVTPKKDGSFLYSIADDDSLVGTFVGGRLLDKKEWCRLNDGDVITMGATSAILYTSDHKDTESEEKN | not soluble |
| MGSDKIHHHHHHMEKLFTYKEFVDMMQKYGIRHTKRKLRRGENLMENASKFSNVVLLINGYISSYTYESPEKLLSIFEPGIFLRYSILEDQPEFVTNIALSDNCEVYEYKKEDIEYALTLFPENFGFQYFFLKRIGRHLYYRALLNGKEHKEKLYYAMKYLGELIGKTDENGNVSLPPEVTLKVLIEYSTLSKAAFYRQRIRLLEQEILKPHENTFIVQKKVASHYENQLTSI | not soluble |
| RDHRKIGKQLDLYHMQEEAPGMVFWHNDGWTIFRELEVFVRSKLKEYQYQEVKGPFMMDRVLWEKTGHWDNYKDAMFTTSSENREYCIKPMNCPGHVQIFNQGLKSYRDLPLRMAEFGSCHRNEPSGSLHGLMRVRGFTQDDAHIFCTEEQIRDEVNGCIRLVYDMYSTFGFEKIVVKLSTRPEKRIGSDEMWDRAEADLAVALEENNIPFEYQLGEGAFYGPKIEFTLYDCLDRAWQCGTVQLDFSLPSRLSASYVGEDNERKVPVMIHRAILGSMERFIGILTEEFAGFFPTWLAPVQVVIMNITDSQSEYVNELTQKLSNAGIRVKADLRNEKIGFKIREHTLRRVPYMLVCGDKEVESGKVAVRTRRGKDLGSMDVNEVIEKLQQEIRSRSLKQLEE | soluble |
| GSHMSQVEKDNTQALIPTMNMARQLSEASAWELFAAQNLTSADNEKMWQAQGRMLTAQSLKINALLQALREQGFDTTAIEQQEQEISRSLRQQGELVGQRLQLRQQQQQLSQQIVAAADEIARLAQGQANNATTSAGATQAGIYDLIEQDQRQAAESALDRLIDIDLEYVNQMNELRLSALRVQQMVMNLGLEQIQKNAPTLEKQLNNAVKILQRRQIRIEDPGVRAQVATTLTTVSQYSDLLALYQQDSEISNHLQTLAQNNIAQFAQFSSEVSQLVDTIELRNQHGLA | soluble |
| MGSDKIHHHHHHMTKRDPSTLIRIARENGAEAEAEPLDLGARVRELRKARDWTLEQAASQAGLARSTLSKIENGQMSPTYDALKKLAVGLQISVPQLFTPPQKGQVNGRMTVTKSGSGSGHATATYEHELLADSLTKKQMLPYRARVRARAMEEFDGWVRHDGEEFLYVLTGVIRLYTEFYEPIEMRRGDSAYYDASMGHNVVSVSDEDATILWVTSLV | not soluble |
| SMQEKREELRMRSENQAMNIVLQRQYDQYRLSIDNIELLRREFHDLKHYMIAIRSEQDPKKKEQYLLEMEEAIHTQEALTNTGNSVLDVVLTTKSTYCMQKHITFTCMADGKLISFMHVKDICSIFGNALDNAIECVSQFDDPEKRLITLSMYQKNQLLMIQCENYTETSLSLKPDQLPTTTKQNAGYHGYGLKSIQQAARKYGGSMTLHAEDNWFTLQVLIPVES | not soluble |
| MSNDIEKSIQQWLEKKLEERGHGAQIELAAYLGIHPSTISRMLNPYKNGKSRSISIGELVKIAEFFKVSPPQISSLMLIKNS | not soluble |
| FERGHEFSFAQAVRLLRLLAAAQGREGACPCGVRVRPELSLSFPVADVARIERQSDGYRITARFLGLYGPSSPLPTFYTEELIDEEREDGSASRDFLDVLSHRIFDLWVAGDAKYRLFNRVVEDGSGDDLERLFCLAGLDLAQGQTVLPESGRWLRYVGLLGQVPRSALGLRTMVADALGVPVEVIPCQHRQVSIPPGQRLAVGIAASSLGIDTVVGTNLDDRLGMFRLCLGPLSREQFADLLPGAPGRSTLDLIVELYLDAPLAWDVELTLAPGETPEARLGACRGARVGWDTWLGV | not soluble |
| MSQTIGRIEEISFYSASLQDDVTLLVYLPVNYTPLHKHTVVIAQDGRDYFQLGKAHRVIERLRETEEIDRTIIVGIPYKNVHDRKEKYFPNEVKNAAYIRFLAHELAPYIDENYPTYQMGKGRVLIGDSLGGTVSFMTALMYPHTFGKVVMQSPFVDETVMNLAKEFKDPQALELYHVIGTEETAVKRTDGQVSDFVGPNRELNTLLTDRNFITHYEEFEGNHTWKYWQTDLPKAFSHILSMK | not soluble |
